Results taken from PMC7904446 (Cell Host & Microbe, 2021).

B1: ZDY28 Fab (Fab, V domains shown)
VH: EVQLVQSGGGVVQPGRSLRLSCAASGFTFSSYGMHWVRQAPGKGLEWVAVISYDGSNKYYADSVKGRFTISRDNSKNTLYLQMNSLRAEDTAVYYCASRSTVVPAAIFAFDIWGQGTMVTVSS
VL: not shown
B2: ZDY95 Fab (Fab, V domains shown)
VH: EVQLVQSGGGVVQPGRSLRLSCAASGFTFSSYGMHWVRQAPGKGLEWVAVISYDGSNKYYADSVKGRFTISRDNSKNTLYLQMNSLRAEDTAVYYCASRSTVVPAAIFAFDIWGQGTMVTVSS
VL: not shown
B3: ZDY49 Fab (Fab, V domains shown)
VH: EVQLVESGGGVVQPGRSLRLSCAASGFTFSSYGMHWVRQAPGKGLEWVAVISYDGSNKYYADSVKGRFTISRDNSKNTLYLQMNSLRAEDTAVYYCASRSTVVPAAIFAFDIWGQGTMVTVSS
VL: not shown
B4: ZDY20 Fab (Fab, V domains shown)
VH: EVQLVETGGGLIQPGGSLRLSCAASGITVSSNYMSWVRQAPGKGLEWVSVIYSGGSTYYADSVKGRFTISRDNSKNTLYLQMNSLRAEDTAVYYCAREGLGDGYNAIAGLGFDLWGRGTLVTVSS
VL: DIVMTQSPSSLSASVGDSVTITCQASQDINNYLNWYQQKPGRAPELLINDASNLEAGVPSRFSGSGSGTDFTLTISSLQTEDFATYYCQQYGSLPYTFGQGTKLDIR

What follows are binders tested against recombinant SARS-CoV-2 spike protein receptor binding domain (RBD) (SARS-CoV-2, UniProt P0DTC2, biotin (the listed product is biotinylated)) (assay: SPR).
B1 was tested, and the Kd was 19.2 nM. With B2 the Kd was 26.2 nM. Binder B3 has a Kd of 42.3 nM. B4 gave a Kd of 74.9 nM.
